The Immune Epitope Database (IEDB)

Columns and labels:
HLA-A*02:01 [1] = assay: IEDB peptide-MHC binding, purified MHC/competitive/radioactivity; ≥ and ≤ were set here for values at or beyond the usual limits of such assays
HLA-B*07:02 [2] = assay: IEDB peptide-MHC binding, purified MHC/competitive/fluorescence; filed as Kd, often an IC50 or EC50 that approximates it; ≥ and ≤ were set here for values at or beyond the usual limits of such assays
HLA-B*57:01 = assay: IEDB peptide-MHC binding, purified MHC/direct/fluorescence; filed as Kd, often an IC50 or EC50 that approximates it; ≥ and ≤ were set here for values at or beyond the usual limits of such assays
HLA-B*08:03 = assay: as above; settings: source organism: Orthomarburgvirus marburgense
HLA-B*15:01 [3] = assay: as above; settings: source organism: Lake Victoria marburgvirus - Popp
HLA-B*58:01 = assay: as above
HLA-A*26:01 = assay: as above; settings: source organism: Orthomarburgvirus marburgense
HLA-B*15:17 = assay: as above
HLA-B*46:01 [4] = assay: as above; settings: source organism: Lake Victoria marburgvirus - Popp
HLA-A*01:01 = assay: as above
HLA-B*07:02 [5] = assay: as above; settings: source organism: Lake Victoria marburgvirus - Popp
HLA-A*68:02 = assay: as above; settings: source organism: Lake Victoria marburgvirus - Popp
HLA-B*48:01 = assay: as above; settings: source organism: Lake Victoria marburgvirus - Popp
HLA-A*11:01 = assay: as above
HLA-A*31:01 = assay: as above
HLA-A*02:01 [6] = assay: as above
HLA-A*03:01 = assay: as above; settings: source organism: Lake Victoria marburgvirus - Popp
HLA-B*27:05 [7] = assay: as above; settings: source organism: Lake Victoria marburgvirus - Popp
HLA-B*08:01 = assay: as above
HLA-B*40:01 [8] = assay: as above; settings: source organism: Lake Victoria marburgvirus - Popp
HLA-A*26:02 = assay: IEDB peptide-MHC binding, purified MHC/competitive/fluorescence; filed as Kd, often an IC50 or EC50 that approximates it; ≥ and ≤ were set here for values at or beyond the usual limits of such assays; settings: source organism: Orthomarburgvirus marburgense
HLA-A*02:06 = assay: as above; settings: source organism: Orthomarburgvirus marburgense
HLA-B*27:05 [9] = assay: as above
HLA-A*69:01 = assay: IEDB peptide-MHC binding, purified MHC/direct/fluorescence; filed as Kd, often an IC50 or EC50 that approximates it; ≥ and ≤ were set here for values at or beyond the usual limits of such assays
HLA-C*14:02 = assay: as above
HLA-C*05:01 = assay: as above
HLA-B*83:01 = assay: IEDB peptide-MHC binding, purified MHC/competitive/fluorescence; filed as Kd, often an IC50 or EC50 that approximates it; ≥ and ≤ were set here for values at or beyond the usual limits of such assays; settings: source organism: Mycobacterium tuberculosis C
HLA-B*45:06 = assay: as above; settings: source organism: Mycobacterium tuberculosis C
HLA-B*15:42 = assay: as above; settings: source organism: Mycobacterium tuberculosis C
HLA-C*03:03 = assay: IEDB peptide-MHC binding, purified MHC/direct/fluorescence; filed as Kd, often an IC50 or EC50 that approximates it; ≥ and ≤ were set here for values at or beyond the usual limits of such assays
HLA-C*15:02 = assay: as above
HLA-A*23:01 = assay: as above; settings: source organism: Vibrio cholerae
HLA-A*24:03 = assay: as above; settings: source organism: Vibrio cholerae
HLA-C*07:02 = assay: as above; settings: source organism: Vibrio cholerae AM-19226
HLA-B*46:01 [10] = assay: IEDB peptide-MHC binding, purified MHC/competitive/fluorescence; filed as Kd, often an IC50 or EC50 that approximates it; ≥ and ≤ were set here for values at or beyond the usual limits of such assays; settings: source organism: Vibrio cholerae AM-19226
HLA-B*15:01 [11] = assay: as above
HLA-B*39:01 = assay: as above
HLA-B*40:01 [12] = assay: as above
HLA-C*12:03 = assay: IEDB peptide-MHC binding, purified MHC/direct/fluorescence; filed as Kd, often an IC50 or EC50 that approximates it; ≥ and ≤ were set here for values at or beyond the usual limits of such assays
HLA-C*06:02 = assay: as above
HLA-B*18:01 = assay: as above; settings: source organism: Marburg virus - Musoke, Kenya, 1980
HLA-A*30:01 = assay: IEDB peptide-MHC binding, purified MHC/competitive/fluorescence; filed as Kd, often an IC50 or EC50 that approximates it; ≥ and ≤ were set here for values at or beyond the usual limits of such assays; settings: source organism: Orthomarburgvirus marburgense
HLA-A*02:03 = assay: IEDB peptide-MHC binding, purified MHC/direct/fluorescence; filed as Kd, often an IC50 or EC50 that approximates it; ≥ and ≤ were set here for values at or beyond the usual limits of such assays; settings: source organism: Variola virus
HLA-B*35:01 = assay: IEDB peptide-MHC binding, purified MHC/competitive/fluorescence; filed as Kd, often an IC50 or EC50 that approximates it; ≥ and ≤ were set here for values at or beyond the usual limits of such assays; settings: source organism: Camelpox virus M-96
[13] = source organism: Lake Victoria marburgvirus - Popp
[14] = source organism: Orthomarburgvirus marburgense
[15] = source organism: Pseudomonas aeruginosa
[16] = source organism: Vibrio cholerae AM-19226
[17] = source organism: Escherichia coli O139:H28 str. E24377A
[18] = source organism: Rickettsia massiliae MTU5
[19] = source organism: Mycobacterium tuberculosis H37Ra
[20] = source organism: Marburg virus - Musoke, Kenya, 1980
[21] = source organism: Camelpox virus M-96
[22] = source organism: Camelpox virus CMS

## ILDAHSLYL
HLA-A*02:01 [1]; source organism: Rift Valley fever virus
  IC50: 1.3 nM

## SPYNSRFESV
HLA-B*07:02 [2]; source organism: Influenza A virus
  Kd: 3.4 nM

## KNYPASLHK
HLA-B*57:01; [13]
  Kd: ≥ 20000 nM
HLA-B*08:03
  Kd: ≥ 20000 nM
HLA-B*15:01 [3]
  Kd: ≥ 20000 nM
HLA-B*58:01; [13]
  Kd: ≥ 20000 nM
HLA-A*26:01
  Kd: ≥ 20000 nM
HLA-B*15:17; [13]
  Kd: ≥ 20000 nM
HLA-B*46:01 [4]
  Kd: ≥ 20000 nM
HLA-A*01:01; [13]
  Kd: ≥ 20000 nM
HLA-B*07:02 [5]
  Kd: ≥ 20000 nM
HLA-A*68:02
  Kd: ≥ 20000 nM
HLA-B*48:01
  Kd: ≥ 20000 nM
HLA-A*11:01; [13]
  Kd: 91.7 nM
HLA-A*31:01; [13]
  Kd: ≥ 20000 nM
HLA-A*02:01 [6]; [13]
  Kd: ≥ 20000 nM
HLA-A*03:01
  Kd: 102 nM
HLA-B*27:05 [7]
  Kd: ≥ 20000 nM
HLA-B*08:01; [14]
  Kd: ≥ 20000 nM
HLA-B*40:01 [8]
  Kd: ≥ 20000 nM
HLA-A*26:02
  Kd: ≥ 20000 nM
HLA-A*02:06
  Kd: 627 nM

## FRWTQSLRR
HLA-B*27:05 [9]; source organism: Mammarenavirus machupoense
  Kd: 39.8 nM

## VLMAVVLASL
HLA-A*02:01 [1]; source organism: Homo sapiens
  IC50: 45.7 nM

## AYFATPASV
HLA-A*69:01; [15]
  Kd: 4370 nM
HLA-A*31:01; [15]
  Kd: 207 nM
HLA-A*02:01 [6]; [15]
  Kd: 2270 nM
HLA-C*14:02; source organism: Pseudomonas aeruginosa 2192
  Kd: ≤ 1 nM

## YPRNGWPAL
HLA-C*05:01; source organism: Mycobacterium tuberculosis C
  Kd: ≥ 20000 nM
HLA-B*83:01
  Kd: 34.9 nM
HLA-B*45:06
  Kd: ≥ 5000 nM
HLA-B*15:42
  Kd: ≥ 5000 nM

## YALPSAGAF
HLA-C*03:03; [16]
  Kd: ≤ 1 nM
HLA-C*15:02; [16]
  Kd: 386 nM
HLA-A*23:01
  Kd: 445 nM
HLA-A*24:03
  Kd: 290 nM
HLA-C*07:02
  Kd: 404 nM
HLA-C*14:02; [16]
  Kd: 46 nM
HLA-B*46:01 [10]
  Kd: 34.5 nM

## RQGWARAML
HLA-B*15:01 [11]; [17]
  Kd: 143 nM
HLA-B*39:01; [17]
  Kd: ≥ 20000 nM
HLA-B*27:05 [9]; [17]
  Kd: 191 nM
HLA-B*40:01 [12]; [17]
  Kd: 313 nM

## FMRFAFLSM
HLA-C*15:02; [18]
  Kd: ≥ 20000 nM
HLA-C*12:03; [18]
  Kd: 894 nM
HLA-C*06:02; [18]
  Kd: ≥ 20000 nM

## GLIDIAPHQISS
HLA-A*02:01 [1]; [19]
  IC50: 173 nM

## HMTEVVRRC
HLA-A*02:01 [1]; source organism: Homo sapiens
  IC50: 10200 nM

## YRYSLSSDL
HLA-C*06:02; source organism: Vaccinia virus WR
  Kd: 4 nM

## EIRTFSFQL
HLA-B*07:02 [2]; source organism: Influenza A virus (A/duck/England/1/1956(H11N6))
  Kd: ≥ 20000 nM

## QGKQHLHSL
HLA-B*57:01; [20]
  Kd: ≥ 20000 nM
HLA-B*58:01; [20]
  Kd: ≥ 20000 nM
HLA-A*69:01; [20]
  Kd: ≥ 20000 nM
HLA-B*18:01
  Kd: ≥ 20000 nM
HLA-B*15:17; [20]
  Kd: ≥ 20000 nM
HLA-A*01:01; [20]
  Kd: ≥ 20000 nM
HLA-A*11:01; [20]
  Kd: ≥ 20000 nM
HLA-A*31:01; [20]
  Kd: ≥ 20000 nM
HLA-B*08:01; [20]
  Kd: 212 nM
HLA-B*15:01 [11]; [14]
  Kd: 4000 nM
HLA-B*07:02 [2]; [14]
  Kd: ≥ 20000 nM
HLA-A*26:02
  Kd: ≥ 20000 nM
HLA-A*30:01
  Kd: ≥ 20000 nM

## LMDENTYAM
HLA-C*03:03; [21]
  Kd: 592 nM
HLA-A*69:01; [22]
  Kd: 57.8 nM
HLA-A*02:03
  Kd: 20 nM
HLA-A*02:01 [6]; [22]
  Kd: ≤ 1 nM
HLA-C*12:03; [21]
  Kd: ≥ 20000 nM
HLA-C*05:01; [21]
  Kd: 7 nM
HLA-B*35:01
  Kd: 0.2 nM

## FLPVDFFPSI
HLA-A*02:01 [1]; source organism: Hepatitis B virus
  IC50: 35 nM

## GEDAKLIAV
HLA-B*40:01 [12]; source organism: Escherichia coli 536
  Kd: 3.8 nM

## KINIFMAFL
HLA-C*14:02; source organism: Taterapox virus
  Kd: ≥ 20000 nM

## YQERFVLAL
HLA-B*39:01; [19]
  Kd: 1.7 nM
HLA-B*27:05 [9]; [19]
  Kd: 946 nM
